Reference: patent US20230242902A1, “A HIGHLY ERROR-PRONE […] R[…] FOR TARGETED CONTINUOUS EVOLUTION IN VIVO” (The Regents of the University of California, priority 2017, published 2023)
Changes are numbered by the printed parent chain. Numbers in names are those of the source. Where “and” joins values, the source holds several entries; their conditions need not be identical. Identical values can stand only once.

Assays:
Assay type in all cases: cell-based, S. cerevisiae
p1-encoded leu2 (Q180*) [1] = experiment: Large-scale p1 fluctuation tests of p1-encoded leu2 (Q180*), per-base substitution rate; details: for Mutation rate (s.p.b.): per-base substitution rate, p1-encoded leu2 (Q180*)
Text: All three TP-DNAP1 libraries were screened through small scale p1 fluctuation tests in a metastable S. cerevisiae strain, OR-Y24. OR-Y24 contains w.t. p1 and recombinant p1 that lacks w.t. TP-DNAP1, and instead, encodes a standardized fluorescence reporter of p1 copy number (Table 1), and a disabled version of the LEU2 selection marker (leu2 (Q180*)). As described previously (Ravikumar et al., 2014), leu2 (Q180*) contains a C→T mutation at base 538 in LEU2 at a site permissive to all single point mutants that generate missense mutations. Reversion to functional LEU2 can be detected on medium lacking leucine.
Large-scale fluctuation tests of p1-encoded leu2 (Q180*) were performed to precisely determine per-base substitution rates for individually cloned or isolated TP-DNAP1 variants. Large-scale p1 fluctuation tests are performed similarly to small-scale p1 fluctuation tests, with several modifications. First, large-scale p1 fluctuation tests were typically performed with 36-48 replicates. For highly error-prone TP-DNAP1s obtained from later rounds of screening, fewer replicates (3-16) were used, which is sufficient for similar precision (Foster et al., 2006). Second, p1 copy number was determined by the flow cytometry method, described below. Third, cell titers were measured for each fluctuation test to estimate the average number of cells per culture. Cell resuspensions were diluted and plated on solid SC-UH medium, and colony counts were determined after incubation at 30° C. for 2-3 days. Alternatively, cell resuspensions were diluted and subject to an event-count measurement via flow cytometry. Fourth, inoculums of highly error-prone TP-DNAP 1 s occasionally contained pre-existing mutants, despite the 1:10,000 dilution, so mutant frequencies were estimated by plating pre-cultures on solid SC-UHLW, pH 5.8 medium. Plates were incubated for 2-3 days, in parallel with cultures grown for fluctuation tests. Pre-culture mutant titers were counted to estimate the number of replicates in the fluctuation test expected to contain pre-existing mutants (n). Revertants were counted from all replicates of the fluctuation tests, counts were sorted, and n replicates with the highest counts were omitted from calculations.
To calculate per-base substitution rates, fluctuation data were analyzed by the maximum likelihood method, implemented using newton.LD.plating in rSalvador 1.7 (Zheng, 2017). Phenotypic mutation rates were calculated by normalizing to the average number of cells per culture. Phenotypic mutation rates were divided by the measured p1 copy number and by the number of ways leu2 (Q180*) can revert to LEU2 (2.33 for the ochre codon) to yield per-base substitution rates. 95% confidence intervals were similarly scaled by these factors. All data related to large-scale p1 fluctuation tests are fully described in Table 2.

p1 = p1 copy number by p1-encoded mKate2 fluorescence; details: sustained by TP-DNAP1 variant
How it was run: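 p1 copy number came from mKate2 fluorescence of saturated OR-Y24 cultures (triplicates, regrown from 1:10,000), read by flow cytometry and converted through a linear curve calibrated by qPCR (LEU2 against genomic LEU3). For small-scale tests, OD600-normalized plate-reader fluorescence (588/633 nm) was scaled to a w.t. TP-DNAP1 control.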

genomic URA3 gene = experiment: Fluctuation tests of the genomic URA3 gene in the presence of TP-DNAP1 variants; details: URA3 locus, strain harbouring p1 and the TP-DNAP1 variant
Method: Fluctuation tests of the genomic URA3 gene were performed to determine genomic per-base substitution rates, as previously described (Ravikumar et al., 2014). Fluctuation data were analyzed by the maximum likelihood method, as described for large-scale p1 fluctuation tests. Phenotypic mutation rates were divided by the target size for loss of function of URA3 via base pair substitution (Lang et al., 2008), to yield per-base substitution rates. 95% confidence intervals were similarly scaled by these factors. All data related to genomic URA3 fluctuation tests are fully described in Table 5.

p1-encoded leu2 (Q180*) [2] = experiment: qPCR measurement of p1-encoded leu2 (Q180*) copy number; details: qPCR-determined p1 copy number, OR-Y24 strains
Method: A calibration curve was established to correlate p1 copy number, determined via quantitative PCR (qPCR), with fluorescence of p1-encoded mKate2 (Table 1). Five TP-DNAP1 variants representing a wide range of copy numbers were transformed into ORY24 and passaged until w.t. p1 was displaced. The five OR-Y24 strains were grown to saturation, diluted 1:10,000 to mimic p1 fluctuation tests, and grown in triplicate 100 μL cultures and duplicate 40 mL cultures. 100 μL saturated cultures were subject to fluorescence measurement of mKate2 (ex/em=561 nm/620 nm, bandwidth=15 nm) on a flow cytometer (Invitrogen Attune NxT). Whole-cell DNA extracts were prepared from 40 mL cultures and used as templates for qPCR measurement of p1-encoded leu2 (Q180*), as described previously (Ravikumar et al., 2014). p1-encoded LEU2 was PCR amplified with qPCR-Leu2F and qPCR Leu2R; and genomic LEU3 was PCR amplified with qPCR-Leu3F and qPCR-Leu3R using SyBR Green (Fisher Scientific) master mix.

B1: TP-DNAP1-4-1: TP-DNAP1 variant (V574F, I777K, L900S), encoded by SEQ ID NO:10 (protein, listed as Kluyveromyces lactis)
chain: MDYKDKALNDLRNVYADFDSLPLDFRQILIKDRATLLQKEDVEKKILERQEDAKKYAEYLKQSEIPERISLPNIKRHKGVSISFEETSEDMVLEPRPFIFDGLNIRCFRRETIFSLKNKILNMVKESSSFKNVSRQSVSFMYFKIFNKGKVIASTKSVNIYEDKIDERLEDLCNNFDDVLKKIIDVTYGYESLFVSETYSYVIFYAKSIYFPQPRCVNNWGNNIPNILTFDSFKLFTANKNNVSCIKQCSRFLWQKDFNTLEEMIEYKNGNICIVTPQLHINDVRDIKSFNDIRLYSESPIKTFSVIDNTITYLFYFKEHLGVIFNITKSRHDRRVTKFSPLSKFSDVKNITVCFDIESYFDPEKESNQVNIPFICCASIIYNKVIGNIVDFEGRDCVAQMIEYVVDICGELNISSVELIAHNGGGYDFHYILSSMYNPAAIKNILIRNNSFISFNFAHDGVKFSVKDSYSFLLCSLANASKAFLNEETFKKTDFPHHDLKTADDLYKVYKEWSSVNTEINHVVEKEKLLITSEHIVNFTKNDKSKTLIEWSKDYCRNDVLVLSKVWLEFKNAFEDIFNCELVDQTMTLAGLSYKLFQANMPFDVELRHPNKEDYFNMREALIGGRCISVNGIYKDVLCLDVKSLYPASMAFYDQPYGSFKRVSSRPKDELGIYYVRVTPNRNNKSNFFPIRSHNKITYNNFEESTYIAWYTNVDIDIGLSEGHNIEYIPFDSYGNIGYSWSKKGKIFEKYIKDVLYKLKIKYEKQNNKVKRNVIKKIMNSLWGKFAQKWVNFEYFIKSEDDIDFESEEAYKIWDTDFMLIKKIKESTYSSKPIQNGVFTLSWARYHMKSIWDAGAKEGAECIYSDTDSIFVHKEHFKKNAKFMLNGLKVPIIGSEVGQSELECEFDKLLCAGKKQYMGFYTYFQDGKPCIKEKKRFKGIPSNYIIPELYAHLLSGADKEAKIQFLKFRREWGSVKGYIENKTVKAT
For B1, the p1 mutation rate (p1-encoded leu2 (Q180*) [1]; p1 replication by TP-DNAP1 variant) was ~7×10^−6 s.p.b, the “Mutation rate (s.p.b.)” value (p1-encoded leu2 (Q180*) [1]; measurements taken after 90 generations, I777K, L900S) was 7.58 × 10^−6 s.p.b. and 6.87 × 10^−6 s.p.b. and 7.71 × 10^−6 s.p.b and the p1 copy number (p1) was ~5. For the same molecule, the “Yeast genomic substitution mutation rate” value (genomic URA3 gene) was 1.76 × 10^−10 s.p.b.

B2: I777K: TP-DNAP1 variant, encoded by SEQ ID NO:3 (protein)
chain: B1 chain with F574V, S900L
For B2, the “Average leu2 (Q180*) copy number per cell” value (p1-encoded leu2 (Q180*) [2]) was 45.8 and 54.1.

B3: L474W, L640Y, I777K, W814N: TP-DNAP1 variant, encoded by SEQ ID NO:9 (protein, listed as Kluyveromyces lactis)
chain: B1 chain with L474W, F574V, L640Y, W814N, S900L
B3 was tested, and the “Average leu2 (Q180*) copy number per cell” value (p1-encoded leu2 (Q180*) [2]; L640Y, I777K) was 8.63 and 11.1, the “Mutation rate (s.p.b.)” value (p1-encoded leu2 (Q180*) [1]; large-scale fluctuation test) was 4.03 × 10^−6 s.p.b. and 2.74 × 10^−6 s.p.b and the “Yeast genomic substitution mutation rate” value (genomic URA3 gene) was 2.17 × 10^−10 s.p.b.

B4: Y431H, L640Y, I777K, W814N: TP-DNAP1 variant, encoded by SEQ ID NO:8 (protein, listed as Kluyveromyces lactis)
chain: B1 chain with Y431H, F574V, L640Y, W814N, S900L
B4 was tested, and the “Mutation rate (s.p.b.)” value (p1-encoded leu2 (Q180*) [1]; measurements taken after 90 generations) was 2.33 × 10^−6 s.p.b. and 4.29 × 10^−6 s.p.b. and 3.24 × 10^−6 s.p.b and the “Yeast genomic substitution mutation rate” value (genomic URA3 gene) was 2.68 × 10^−10 s.p.b.
